Test results as given in patent US20180155451A1 (published 2018).

T1: FcγRIIa R (extracellular domain, C-terminal His tag) (human, UniProt P12318 34-217)
T1 construct: extracellular domain; also called FcgRIIa R type; 2aR; not shown: His tag attached to the C terminus
T1 sequence (looked up): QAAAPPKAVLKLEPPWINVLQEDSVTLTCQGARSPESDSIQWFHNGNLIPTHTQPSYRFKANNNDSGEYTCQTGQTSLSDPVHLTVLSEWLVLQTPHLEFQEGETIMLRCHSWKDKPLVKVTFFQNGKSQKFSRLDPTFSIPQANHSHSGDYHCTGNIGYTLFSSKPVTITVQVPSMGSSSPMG

T2: FcγRIIb (extracellular domain, C-terminal His tag) (human, UniProt P31994 43-217)
T2 construct: extracellular domain; also called FcgRIIb; 2b; not shown: His tag attached to the C terminus
T2 sequence (looked up): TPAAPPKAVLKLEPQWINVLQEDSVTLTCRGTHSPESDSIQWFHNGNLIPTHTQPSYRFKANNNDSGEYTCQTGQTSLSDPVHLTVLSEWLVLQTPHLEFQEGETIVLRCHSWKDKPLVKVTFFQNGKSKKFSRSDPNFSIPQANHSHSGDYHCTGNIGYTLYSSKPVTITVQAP

T3: FcγRIIb extracellular domain with C-terminal His tag (human, UniProt P31994 43-217)
T3 construct: extracellular domain; Expressed in FreeStyle293 cells; used as analyte in Biacore; also called FcgRIIb; 2b; not shown: C-terminal His tag
T3 sequence (looked up): T2 sequence (looked up)

B1: GpH7-A5/GpH7-B3 variant S337_02A/GpL16-k0 (antibody, human IgG1, kappa)
heavy 1: not shown
heavy 2: not shown
light: DIVMTQSPLSLPVTPGEPASISCQASESLVHSNRNTYLHWYLQKPGQSPQLLIYKVSNRFSGVPDRFSGSGSGTDFTLKISRVEAEDVGVYYCSQNTHVPPTFGQGTKVEIERTVAAPSVFIFPPSDEQLKSGTASVVCLLNNFYPREAKVQWKVDNALQSGNSQESVTEQDSKDSTYSLSSTLTLSKADYEKHKVYACEVTHQGLSSPVTKSFNRGEC
notes: Heterodimerized anti-glypican-3 IgG1; alteration in only one H chain (GpH7-B3 side); also called He Ab
B2: GpH7-A5/GpH7-B3 variant S337_03V/GpL16-k0 (antibody, human IgG1, kappa)
heavy 1: not shown
heavy 2: not shown
light: B1 light
notes: as for B1
B3: GpH7-A5/GpH7-B3 variant S337_11K/GpL16-k0 (antibody, human IgG1, kappa)
heavy 1: not shown
heavy 2: not shown
light: B1 light
notes: as for B1
B4: GpH7-A5/GpH7-B3 variant E333_15Y/GpL16-k0 (antibody, human IgG1, kappa)
heavy 1: not shown
heavy 2: not shown
light: B1 light
notes: as for B1
B5: GpH7-A5/GpH7-B3 variant E333_09D/GpL16-k0 (antibody, human IgG1, kappa)
heavy 1: not shown
heavy 2: not shown
light: B1 light
notes: as for B1
B6: GpH7-A5/GpH7-B3 variant E333_07I/GpL16-k0 (antibody, human IgG1, kappa)
heavy 1: not shown
heavy 2: not shown
light: B1 light
notes: as for B1
B7: GpH7-A5/GpH7-B3 variant E333_08L/GpL16-k0 (antibody, human IgG1, kappa)
heavy 1: not shown
heavy 2: not shown
light: B1 light
notes: as for B1
B8: GpH7-A5/GpH7-B3 variant S337_19Q/GpL16-k0 (antibody, human IgG1, kappa)
heavy 1: not shown
heavy 2: not shown
light: B1 light
notes: as for B1
B9: GpH7-A5/GpH7-B3 variant S337_04F/GpL16-k0 (antibody, human IgG1, kappa)
heavy 1: not shown
heavy 2: not shown
light: B1 light
notes: as for B1
B10: GpH7-A5/GpH7-B3 variant S337_06M/GpL16-k0 (antibody, human IgG1, kappa)
heavy 1: not shown
heavy 2: not shown
light: B1 light
notes: as for B1
B11: GpH7-A5/GpH7-B3 variant S337_12R/GpL16-k0 (antibody, human IgG1, kappa)
heavy 1: not shown
heavy 2: not shown
light: B1 light
notes: as for B1
B12: GpH7-A5/GpH7-B3 variant T335_01G/GpL16-k0 (antibody, human IgG1, kappa)
heavy 1: not shown
heavy 2: not shown
light: B1 light
notes: as for B1
B13: GpH7-A5/GpH7-B3 variant T335_02A/GpL16-k0 (antibody, human IgG1, kappa)
heavy 1: not shown
heavy 2: not shown
light: B1 light
notes: as for B1
B14: GpH7-A5/GpH7-B3 variant I336_18N/GpL16-k0 (antibody, human IgG1, kappa)
heavy 1: not shown
heavy 2: not shown
light: B1 light
notes: as for B1
B15: GpH7-A5/GpH7-B3 variant S298_08L/GpL16-k0 (He Ab) (antibody, human IgG1, kappa)
heavy 1: not shown
heavy 2: not shown
light: B1 light
notes: Substitution in one H chain only; position in EU numbering; also called S298L heterodimerized antibody
B16: GpH7-A5/GpH7-B3 variant L328_07I/GpL16-k0 (He Ab) (antibody, human IgG1, kappa)
heavy 1: not shown
heavy 2: not shown
light: B1 light
notes: Substitution in one H chain only; position in EU numbering; also called L328I heterodimerized antibody
B17: GpH7-A5/GpH7-B3 variant T335_09D/GpL16-k0 (He Ab) (antibody, human IgG1, kappa)
heavy 1: not shown
heavy 2: not shown
light: B1 light
notes: Substitution in one H chain only; position in EU numbering; also called T335D heterodimerized antibody
B18: GpH7-A5/GpH7-B3 variant S267_02A/GpL16-k0 (He Ab) (antibody, human IgG1, kappa)
heavy 1: not shown
heavy 2: not shown
light: B1 light
notes: Substitution in one H chain only; position in EU numbering; also called S267A heterodimerized antibody
B19: GpH7-A5/GpH7-B3 variant S267_09D/GpL16-k0 (He Ab) (antibody, human IgG1, kappa)
heavy 1: not shown
heavy 2: not shown
light: B1 light
notes: Substitution in one H chain only; position in EU numbering; also called S267D heterodimerized antibody
B20: GpH7-A5/GpH7-B3 variant P331_04F/GpL16-k0 (He Ab) (antibody, human IgG1, kappa)
heavy 1: not shown
heavy 2: not shown
light: B1 light
notes: Substitution in one H chain only; position in EU numbering; also called P331F heterodimerized antibody
B21: GpH7-A5/GpH7-B3 variant L328_15Y/GpL16-k0 (He Ab) (antibody, human IgG1, kappa)
heavy 1: not shown
heavy 2: not shown
light: B1 light
notes: Substitution in one H chain only; position in EU numbering; also called L328Y heterodimerized antibody
B22: GpH7-A5/GpH7-B3 variant Y300_19Q/GpL16-k0 (He Ab) (antibody, human IgG1, kappa)
heavy 1: not shown
heavy 2: not shown
light: B1 light
notes: Substitution in one H chain only; position in EU numbering; also called Y300Q heterodimerized antibody
B23: GpH7-A5/GpH7-B3 variant K334_18N/GpL16-k0 (He Ab) (antibody, human IgG1, kappa)
heavy 1: not shown
heavy 2: not shown
light: B1 light
notes: Substitution in one H chain only; position in EU numbering; also called K334N heterodimerized antibody

Each binder was assayed against T1, FcγRIIa R (extracellular domain, …) (assay: SPR (Biacore), antibody captured on antigen-peptide chip, FcγR as analyte; relative binding amount).
Method: (§1) The heterodimerized antibodies He Abs in which one of the H chains was introduced with an alteration were assayed for their binding activities to each activating FcγR and inhibitory FcγR according to the method described in Example 4. […] The activating FcγRs in FIGS. 26, 27, 28, and 29 are FcγRIa, FcγRIIa (R), FcγRIIa (H), and FcγRIIIa, respectively.
(§2) Analysis of interaction between objective antibody and the FcγR was carried out using Biacore T100 (GE Healthcare). HBS-EP+ (GE Healthcare) was used as the running buffer, and the measurement temperature was set to 25° C. Chips produced by immobilizing the antigen peptide by the amine coupling method to a Series S Sencor Chip CM5 (GE Healthcare), or alternatively, chips produced by allowing preliminarily biotinylated antigen peptides to interact with and immobilize onto a Series S Sensor Chip SA (certified) (GE Healthcare) were used. Antibodies of interest were captured onto an antigen peptide-immobilized chip, and allowed to interact to each FcγR diluted with running buffer. To regenerate and repeatedly use the chip, the antibodies captured on the chip were washed off by reacting 10 mM glycine-HCl, pH 1.5.

Row | He/Con_2aR | Binder
1 | 105 % of control (GpH7-A5/GpH7-B3/GpL16-k0 = 100) | B1
2 | 106 % of control (GpH7-A5/GpH7-B3/GpL16-k0 = 100) | B2
3 | 103 % of control (GpH7-A5/GpH7-B3/GpL16-k0 = 100) | B3
4 | 101 % of control (GpH7-A5/GpH7-B3/GpL16-k0 = 100) | B4
5 | 103 % of control (GpH7-A5/GpH7-B3/GpL16-k0 = 100) | B5
6 | 104 % of control (GpH7-A5/GpH7-B3/GpL16-k0 = 100) | B6
7 | 103 % of control (GpH7-A5/GpH7-B3/GpL16-k0 = 100) | B7
8 | 106 % of control (GpH7-A5/GpH7-B3/GpL16-k0 = 100) | B8
9 | 105 % of control (GpH7-A5/GpH7-B3/GpL16-k0 = 100) | B9
10 | 105 % of control (GpH7-A5/GpH7-B3/GpL16-k0 = 100) | B10
11 | 107 % of control (GpH7-A5/GpH7-B3/GpL16-k0 = 100) | B11
12 | 104 % of control (GpH7-A5/GpH7-B3/GpL16-k0 = 100) | B12
13 | 102 % of control (GpH7-A5/GpH7-B3/GpL16-k0 = 100) | B13
14 | 104 % of control (GpH7-A5/GpH7-B3/GpL16-k0 = 100) | B14

What follows are binders tested against T2, FcγRIIb (extracellular domain, …) in the same assay as above.
Method: as §1, §2

Row | He/Con_2b | Binder
15 | 97.2 % of control (GpH7-A5/GpH7-B3/GpL16-k0 = 100) | B1
16 | 98.9 % of control (GpH7-A5/GpH7-B3/GpL16-k0 = 100) | B2
17 | 94.3 % of control (GpH7-A5/GpH7-B3/GpL16-k0 = 100) | B3
18 | 94.4 % of control (GpH7-A5/GpH7-B3/GpL16-k0 = 100) | B4
19 | 94.3 % of control (GpH7-A5/GpH7-B3/GpL16-k0 = 100) | B5
20 | 96.2 % of control (GpH7-A5/GpH7-B3/GpL16-k0 = 100) | B6
21 | 95 % of control (GpH7-A5/GpH7-B3/GpL16-k0 = 100) | B7
22 | 99.7 % of control (GpH7-A5/GpH7-B3/GpL16-k0 = 100) | B8
23 | 97.8 % of control (GpH7-A5/GpH7-B3/GpL16-k0 = 100) | B9
24 | 96.7 % of control (GpH7-A5/GpH7-B3/GpL16-k0 = 100) | B10
25 | 99.5 % of control (GpH7-A5/GpH7-B3/GpL16-k0 = 100) | B11
26 | 96.7 % of control (GpH7-A5/GpH7-B3/GpL16-k0 = 100) | B12
27 | 94 % of control (GpH7-A5/GpH7-B3/GpL16-k0 = 100) | B13
28 | 97.6 % of control (GpH7-A5/GpH7-B3/GpL16-k0 = 100) | B14

The binders below were run against T3, FcγRIIb extracellular domain with … (assay: SPR (Biacore), antibody captured on antigen-peptide chip, FcgRIIb as analyte; binding relative to GpH7-A5/GpH7-B3/GpL16-k0 (HeCon Ab) = 100).

Row | He/Con_2b | Binder
29 | 108 % of control | B15
30 | 160 % of control | B16
31 | 108 % of control | B17
32 | 243 % of control | B18
33 | 310 % of control | B19
34 | 110 % of control | B20
35 | 193 % of control | B21
36 | 108 % of control | B22
37 | 115 % of control | B23
